Measured values as given in patent US20170059576.

Test system: Immunoglobulin E (IgE), P01854-1
Settings: 5'-hexylamine coupled Sulfo-SBED (phenyl azide, biotin); 365 nm photo-crosslinking, Western blot; marginal at highest protein concentration only

Sequence of Immunoglobulin E (IgE), P01854-1 (P01854 other isoform, or with tags, fused parts or gaps): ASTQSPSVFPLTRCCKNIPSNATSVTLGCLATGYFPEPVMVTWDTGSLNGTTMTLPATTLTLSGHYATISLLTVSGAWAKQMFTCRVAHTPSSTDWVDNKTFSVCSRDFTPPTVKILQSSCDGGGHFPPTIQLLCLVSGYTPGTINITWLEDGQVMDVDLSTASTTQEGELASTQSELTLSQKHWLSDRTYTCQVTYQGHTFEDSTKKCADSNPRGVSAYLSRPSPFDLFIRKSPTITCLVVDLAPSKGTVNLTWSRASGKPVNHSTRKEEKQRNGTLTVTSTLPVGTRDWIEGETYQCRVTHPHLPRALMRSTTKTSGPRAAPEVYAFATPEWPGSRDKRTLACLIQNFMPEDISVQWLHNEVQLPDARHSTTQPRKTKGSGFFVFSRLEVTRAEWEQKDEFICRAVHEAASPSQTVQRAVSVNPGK

Sequence: CCAGCTGGCTCACCGTTCGCGCTAGGGCTTTCCGTCG [ABAL-D17.4sc]
- binding signal (fold lower cross-linking than ABAL-D17.4): 17
